Results from paper PMC11754111 (2025).
Where no end group is shown, it is not given here.

T1: JMJDA Tudor domain
T1 chain: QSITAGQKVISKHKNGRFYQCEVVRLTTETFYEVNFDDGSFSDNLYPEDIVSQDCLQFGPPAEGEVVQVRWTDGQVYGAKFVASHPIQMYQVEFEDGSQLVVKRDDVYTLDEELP

T2: JARID1A PHD finger
T2 chain: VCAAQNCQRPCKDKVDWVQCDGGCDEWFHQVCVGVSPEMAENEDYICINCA

T3: BPTF PHD finger
T3 chain: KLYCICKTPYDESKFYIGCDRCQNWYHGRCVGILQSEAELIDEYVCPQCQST

T4: TAF3 PHD finger
T4 chain: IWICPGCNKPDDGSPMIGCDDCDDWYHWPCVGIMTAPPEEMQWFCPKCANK


Columns and labels:
Assay in all cases: ITC
JMJDA Tudor domain = target: T1, JMJDA Tudor domain
JARID1A PHD finger = target: T2, JARID1A PHD finger
BPTF PHD finger = target: T3, BPTF PHD finger
TAF3 PHD finger = target: T4, TAF3 PHD finger

Row | Kd (JMJDA Tudor domain) | Kd (JARID1A PHD finger) | Kd (BPTF PHD finger) | Kd (TAF3 PHD finger) | Binder
1 | 3610 nM | 2900 nM | 2720 nM |  | ARTKQTARKSTGGKA (trimethyl-lysine at 4; serotonylated glutamine at 5; C-terminal amide (general statement of the peptide synthesis)) [H3K4me3Q5ser histone H3 tail peptide (ITC)]
2 |  | 1680 nM | 1810 nM |  | ARTK(Me3)QTARKSTGGKA-NH2 [H3K4me3 histone H3 tail peptide (ITC)]
3 |  |  |  | 7.94 µM | ARTKQTARKSTGGKA (histaminylated glutamine at 5; C-terminal amide (general statement of the peptide synthesis)) [H3Q5his histone H3 tail peptide (ITC and crystal)]
4 |  |  |  | 3.79 µM | ARTKQTARKSTGGKA (serotonylated glutamine at 5; C-terminal amide (general statement of the peptide synthesis)) [H3Q5ser histone H3 tail peptide (ITC)]
5 |  |  |  | 21.5 µM | ARTKQTARKSTGGKA-NH2 [unmodified histone H3 N-terminal tail peptide (ITC)]
6 | 2300 nM | 1850 nM | 1940 nM |  | ARTKQTARKSTGGKA (trimethyl-lysine at 4; histaminylated glutamine at 5; C-terminal amide (general statement of the peptide synthesis)) [H3K4me3Q5his histone H3 tail peptide (ITC)]
